Experimental data published in patent publication US20090203610A1, “METHODS OF TREATING OBESITY OR DIABETES USING NT-4/5” (RINAT NEUROSCIENCE CORPORATION, priority 2004, published 2009).
Residue numbers refer to the chain shown, from its start. Names may count otherwise. Blank lines part the entries; values can stand above or below the molecule they belong to.

What was measured:
p75NTR = biological target: T1, p75NTR (Homo sapiens, UniProt P08138); details: low affinity receptor (LNGFR, p75NTR); cited from earlier work
T1 sequence (P08138 29-427): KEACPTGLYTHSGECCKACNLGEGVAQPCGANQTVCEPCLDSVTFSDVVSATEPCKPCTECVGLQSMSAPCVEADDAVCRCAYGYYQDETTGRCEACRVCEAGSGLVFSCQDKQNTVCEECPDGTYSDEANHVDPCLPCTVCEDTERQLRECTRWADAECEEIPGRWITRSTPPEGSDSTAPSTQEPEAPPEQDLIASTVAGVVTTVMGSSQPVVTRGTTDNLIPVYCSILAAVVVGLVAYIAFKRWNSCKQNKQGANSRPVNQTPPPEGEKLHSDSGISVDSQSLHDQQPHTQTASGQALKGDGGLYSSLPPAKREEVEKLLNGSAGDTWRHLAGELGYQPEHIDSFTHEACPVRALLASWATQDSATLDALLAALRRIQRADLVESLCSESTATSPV

human TrkC = biological target: T2, human TrkC (Homo sapiens, UniProt Q16288); assay: Receptor tyrosine phosphorylation in trkC expressing cell line; format: cell-based
T2 construct: expressed in transfected cells
From the text: (§1) Assays of TrkB specific activation by pegylated NT-4/5: Stable cell lines expressing human TrkA, TrkB or TrkC were used to determine the functional activity, i.e. receptor phosphorylation, of NT-4/5 and pegylated NT-4/5 as previously described (Sadick et al. Experimental Cell Research 234: 354-361, 1997).
as §1, with “and different forms of” for “and”

DIO mice [1] = assay: NT-4/5 versus BDNF on body weight and food intake of DIO mice (Example 10); format: in vivo; details: 2 mg/kg i.v.
From the text: (§2) Test animals: Mice with diet induced obesity (DIO) were used in this study. 22 male C57BL/6J mice were weaned at 4 weeks of age. Immediately after weaning they were put on 58% high fat diet (D12331i, Research Diet) through out the study. The DIO mice at 13 weeks of age weighing in the range of 28-40 g were used in this study.
Administration of NT-4/5 and BDNF: NT-4/5 was produced was produced as described in U.S. Pat. No. 6,184,360. The recombinant human BDNF was obtained from PeproTech Inc. (Rocky Hill, N.J.).
The mice were divided into 3 groups of equivalent body weight distribution (7-8 mice per group). Each group received 2 weekly intravenous doses of either vehicle, 2 mg/kg of NT-4/5 or 2 mg/kg of BDNF, respectively. Body weight and food intake were taken the day before treatment started (day 0) and followed subsequently on a daily basis.

human TrkB = biological target: T3, human TrkB (Homo sapiens, UniProt Q16620); assay: Receptor tyrosine phosphorylation (KIRA) in TrkB expressing cell line; format: cell-based
T3 construct: expressed in transfected cells
From the text: Method of making pegylated NT-4/5 (S50C): The native form of NT-4/5 used in this study was produced according to the method described in U.S. Pat. No. 6,184,360. A site-directed pegylated NT-4/5 was also produced. The structure of NT-4/5 in complex with domain 5 of TrkB was examined to find amino acid side chains that would be surface available and unlikely to interfere with natural disulfide bonds and also unlikely to interfere in either the interactions between the monomer subunits of NT-4/5 or the TrkB domain 5 to create a PEG attaching site. […] […] Mutant proteins were expressed in E. coli, solubilized, extracted, purified and refolded as the native NT-4/5. To pegylate the refolded NT4-S50C, NT4-Q105C, and NT-4-E67C, first a mild reduction with 0.1 mM DTT (dithiothreitol) was performed. Excess DTT was removed by dialysis against 50 mM sodium acetate at pH 6, then a 5 molar excess of mPEG-maleimide (M. W. of 10,000 Da, SunBio, Inc., South Korea) was incubated with the protein at 37° C. for several days with gentle agitation. Pegylated protein, non-pegylated protein and unreacted PEG were separated via ion exchange or size exclusion chromatography.
as §1
as §1, with “and different forms of” for “and”

human TrkA = biological target: T4, human TrkA (Homo sapiens, UniProt P04629); assay: Receptor tyrosine phosphorylation in trkA expressing cell line; format: cell-based
T4 construct: expressed in transfected cells
From the text: as §1
as §1, with “and different forms of” for “and”

[2] = test system: NONcNZO-10 polygenic obese mice; assay: Pegylated NT-4/5 cysteine mutant on body weight, food intake, glucose, triglyceride in NONcNZO-10 mice (Example 6); format: in vivo; details: single subcutaneous injection of 1 mg/kg
Experimental: Test animals: 30 male NONcNZO-10 polygenic obese mice at 10 weeks of age weighing in the range of 27-32 g were used in this study.
Administration of NT-4/5 and pegylated NT-4/5: The mice were divided into 4 groups of equivalent body weight distribution (7-8 mice per group). Each group received on the first day (day 1) of the study one and the only dose of either vehicle alone, 1 mg/kg of NT-4/5 or 1 mg/kg of PEG-NT4-S50C, respectively. A final group received a daily subcutaneous dose of 1 mg/kg of NT-4/5 from day 1 to day 5, then from day 7 to day 9. On day 9 after the treatment started, blood samples were collected to determine serum glucose and triglyceride levels. Body weight and food intake were monitored 5 days a week through out the entire study.

DIO mice [3] = assay: Weekly intravenous pegylated G1S NT-4/5 versus WT NT-4/5 on body weight and food intake in DIO mice (Example 8); format: in vivo
From the text: as §2, with “29” for “22”, “weaning,” for “weaning”
Administration of NT-4/5 and pegylated NT-4/5: NT-4/5 was obtained from Genentech Inc. or produced as described in U.S. Pat. No. 6,184,360. Pegylated NT-4/5 was produced as follows: A mutation was introduced by changing the glycine 1 position of mature human NT-4/5 sequence to serine, resulting in a mutant form of NT-4/5 (NT4-G1S). NT4-G1S protein was expressed in E. coli, solubilized, extracted, purified and refolded as described above. Refolded NT4-G1S was dialyzed into 50 mM sodium phosphate buffer at pH 6.8 and treated with 1.5 molar excess sodium meta-periodate for 10 minutes to oxidize the N-terminal serine (or threonine) residue to an aldehyde. Remaining periodate was removed by dialysis against 30 mM sodium acetate at pH 4.5. The exact concentration of NT4-G1S was determined and a 2 to 4 fold molar excess of 20K-m-PEG-HZ (methoxy polyethylene glycol hydrazide) was added. The reaction was incubated at 37° C. for several days with gentle agitation. Unconjugated PEG, pegylated NT4-G1S and non-pegylated NT4-G1S were separated via ion exchange or size exclusion chromatography.
The mice were divided into 3 groups of equivalent body weight and baseline blood glucose distribution (7-8 mice per group). Each group received four weekly intravenous doses (on day 1, 8, 15 and 22) of either vehicle, 2 mg/kg of NT-4/5 or 2 mg/kg of pegylated G1S NT-4/5 respectively. Body weight and food intake were monitored 5 days per week through out the entire study.

db/db mice [4] = assay: Body weight after single injection of NT-4/5 or pegylated NT-4/5 in db/db mice (Example 7, Table 21); format: in vivo; details: for Body weight expressed in percentage of baseline value: single 5 mg/kg dose on day 1
Experimental: (§3) Test animals: 30 female db/db mice at 7 weeks of age weighing in the range of 27-34 g were used in this study.
(§4) Administration of NT-4/5 and pegylated NT-4/5: Wild type NT-4/5 was obtained from Genentech Inc. The mice were divided into 5 groups of equivalent body weight distribution (6 mice per group). Each group received on the first day (day 1) of the study one and the only dose of either vehicle, 5 mg/kg of NT-4/5 produced as described above, 5 mg/kg of 2PEG-NT4-G1S, or 5 mg/kg of 1PEG-NT4-G1S. 2PEG-NT4-G1S represents one PEG molecule was conjugated to each NT-4/5 monomer in a NT-4/5 dimer, and 1PEG-NT4-G1S represents one PEG molecule was conjugated to only one monomer of the NT-4/5 dimer. 2PEG-NT4-G1S and 1PEG-NT4-G1S were separated by ion exchange. Four days before starting the treatment (day −4), blood samples were collected from the mice as described previously for the determination of baseline levels of serum glucose. On day 4 after the treatment started, blood samples were collected again to determine serum glucose level. Body weight and food intake were monitored 5 days a week through out the entire study.

db/db mice [5] = assay: Non-fasting serum glucose after single injection in db/db mice (Example 7); format: in vivo; details: after 4 days; single subcutaneous injection, 5 mg/kg
Experimental: as §3, §4

db/db mice [6] = assay: Daily food intake after single injection of NT-4/5 or pegylated NT-4/5 in db/db mice (Example 7, Table 22); format: in vivo; details: for Daily food intake: single s.c. injection 5 mg/kg, db/db mice, mean
Experimental: as §3, §4

[7] = single subcutaneous injection, 5 mg/kg, significantly

T2 sequence (Q16288 32-839): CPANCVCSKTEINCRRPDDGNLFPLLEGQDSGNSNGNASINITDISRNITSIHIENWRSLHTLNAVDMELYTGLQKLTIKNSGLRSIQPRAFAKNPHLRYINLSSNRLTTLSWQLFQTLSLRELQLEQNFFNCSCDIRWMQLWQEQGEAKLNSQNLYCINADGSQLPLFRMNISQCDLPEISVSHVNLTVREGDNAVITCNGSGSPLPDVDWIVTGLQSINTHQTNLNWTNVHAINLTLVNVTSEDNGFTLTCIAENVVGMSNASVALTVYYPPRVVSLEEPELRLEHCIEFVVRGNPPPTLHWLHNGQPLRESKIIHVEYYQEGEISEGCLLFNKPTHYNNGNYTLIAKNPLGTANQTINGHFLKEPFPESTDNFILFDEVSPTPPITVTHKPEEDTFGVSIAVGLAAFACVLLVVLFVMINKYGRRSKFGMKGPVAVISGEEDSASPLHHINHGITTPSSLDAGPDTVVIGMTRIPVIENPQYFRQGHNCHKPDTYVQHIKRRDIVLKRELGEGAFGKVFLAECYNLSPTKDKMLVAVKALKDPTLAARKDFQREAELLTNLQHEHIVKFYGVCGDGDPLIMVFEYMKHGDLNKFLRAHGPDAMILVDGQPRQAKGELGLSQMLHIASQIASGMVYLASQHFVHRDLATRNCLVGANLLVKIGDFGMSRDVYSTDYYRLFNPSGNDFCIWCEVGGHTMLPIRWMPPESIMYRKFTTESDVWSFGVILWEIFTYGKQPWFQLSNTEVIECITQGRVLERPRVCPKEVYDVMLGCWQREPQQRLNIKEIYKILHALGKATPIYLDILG
T3 sequence (Q16620 32-822): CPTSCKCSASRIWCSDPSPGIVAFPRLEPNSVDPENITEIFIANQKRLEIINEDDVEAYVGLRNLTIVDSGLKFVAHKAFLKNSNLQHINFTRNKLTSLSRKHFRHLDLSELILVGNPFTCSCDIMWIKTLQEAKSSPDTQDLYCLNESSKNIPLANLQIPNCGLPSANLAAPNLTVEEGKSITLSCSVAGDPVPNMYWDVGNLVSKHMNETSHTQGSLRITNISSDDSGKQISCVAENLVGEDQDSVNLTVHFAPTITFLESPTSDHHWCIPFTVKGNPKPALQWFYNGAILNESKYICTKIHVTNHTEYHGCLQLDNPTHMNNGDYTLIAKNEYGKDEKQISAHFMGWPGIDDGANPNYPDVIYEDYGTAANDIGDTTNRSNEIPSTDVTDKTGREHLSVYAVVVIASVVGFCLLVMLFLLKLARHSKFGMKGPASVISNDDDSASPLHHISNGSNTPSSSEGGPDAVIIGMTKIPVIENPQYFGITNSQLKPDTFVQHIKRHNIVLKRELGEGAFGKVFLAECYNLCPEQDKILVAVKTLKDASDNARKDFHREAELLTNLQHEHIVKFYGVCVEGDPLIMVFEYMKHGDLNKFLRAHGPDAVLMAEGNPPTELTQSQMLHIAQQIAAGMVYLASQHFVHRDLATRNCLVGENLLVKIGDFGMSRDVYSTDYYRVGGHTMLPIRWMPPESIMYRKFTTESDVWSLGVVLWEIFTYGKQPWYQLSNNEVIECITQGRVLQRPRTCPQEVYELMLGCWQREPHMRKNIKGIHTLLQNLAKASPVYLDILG
T4 sequence (P04629 33-796): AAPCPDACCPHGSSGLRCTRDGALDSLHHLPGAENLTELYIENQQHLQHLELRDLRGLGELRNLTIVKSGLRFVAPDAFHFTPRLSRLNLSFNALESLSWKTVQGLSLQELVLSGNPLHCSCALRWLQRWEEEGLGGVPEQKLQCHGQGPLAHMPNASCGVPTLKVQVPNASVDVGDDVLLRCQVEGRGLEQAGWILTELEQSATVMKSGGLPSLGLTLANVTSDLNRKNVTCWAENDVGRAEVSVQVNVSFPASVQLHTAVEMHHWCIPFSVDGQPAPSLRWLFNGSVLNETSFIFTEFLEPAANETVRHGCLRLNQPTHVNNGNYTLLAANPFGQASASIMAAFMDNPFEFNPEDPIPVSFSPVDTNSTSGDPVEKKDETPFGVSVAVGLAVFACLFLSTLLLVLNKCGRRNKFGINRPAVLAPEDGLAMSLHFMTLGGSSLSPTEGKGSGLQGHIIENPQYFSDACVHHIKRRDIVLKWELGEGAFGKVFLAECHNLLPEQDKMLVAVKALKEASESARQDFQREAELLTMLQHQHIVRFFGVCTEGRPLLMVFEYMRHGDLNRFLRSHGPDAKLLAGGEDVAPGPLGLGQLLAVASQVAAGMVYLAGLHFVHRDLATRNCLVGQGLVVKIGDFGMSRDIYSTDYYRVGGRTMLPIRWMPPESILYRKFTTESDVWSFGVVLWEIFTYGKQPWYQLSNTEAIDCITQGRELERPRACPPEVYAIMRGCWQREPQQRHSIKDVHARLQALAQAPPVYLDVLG

Molecule: NGF: nerve growth factor, control [reference compound]
Kd (p75NTR): 2 nM

receptor tyrosine phosphorylation of trkC-expressing cell line (human TrkC): activated trkC expressing cells
Molecule: NT-3: neurotrophin-3, control activating trkC expressing cells [reference compound]
Kd (p75NTR): 2 nM

B1: BDNF: recombinant human brain-derived neurotrophic factor from PeproTech Inc. (protein, UniProt P23560 19-247, looked up)
Neurotrophic factor BDNF …: APMKEANIRGQGGLAYPGVRTHGTLESVNGPKAGSRGLTSLADTFEHVIEELLDEDQKVRPNEENNKDADLYTSRVMLSSQVPLEPPLLFLLEEYKNYLDAANMSMRVRRHSDPARRGELSVCDSISEWVTAADKKTAVDMSGGTVTVLEKVPVSKGQLKQYFYETKCNPMGYTKEGCRGIDKRHWNSQCRTTQSYVRALTMDSKKRIGWRFIRIDTSCVCTLTIKRGR
body weight on day 2 (DIO mice [1]): did not significantly reduce body weigh | food intake on day 2 (DIO mice [1]): did not significantly reduce food intake | Kd (p75NTR): 2 nM

B2: PEG-NT4-S50C: human NT-4/5 with serine 50 changed to cysteine, pegylated with mPEG-maleimide (10,000 Da) (conjugate)
chain: GVSETAPASRRGELAVCDAVSGWVTDRRTAVDLRGREVEVLGEVPAAGGCPLRQYFFETRCKADNAEEGGPGAGGGGCRGVDRRHWVSECKAKQSYVRALTADAQGRVGWRWIRIDTACVCTLLSRTGRA
receptor tyrosine phosphorylation of TrkB-expressing cell line (human TrkB): increased receptor tyrosine phosphorylation | receptor tyrosine phosphorylation of trkC-expressing cell line (human TrkC): did not increase receptor tyrosine phosphorylation | receptor tyrosine phosphorylation of trkA-expressing cell line (human TrkA): did not increase receptor tyrosine phosphorylation | body weight [2]: significantly reduced | food intake [2]: significantly reduced | blood glucose level ([2]; day 9): did not significantly reduce | triglyceride level ([2]; day 9): did not significantly reduce

B3: pegylated G1S NT-4/5: NT4-G1S (glycine 1 to serine) pegylated with 20K-m-PEG-HZ; 1PEG or 2PEG form not stated (conjugate, UniProt P34130 81-210, looked up, variant G1S)
Neurotrophin-4: B2 chain with G1S, C50S
modifications: 20K-m-PEG-HZ
body weight after the first single dose (DIO mice [3]; 2 mg/kg i.v.): more effective in reducing body weight | food intake after the first single dose (DIO mice [3]; 2 mg/kg i.v.): more effective in reducing food intake than WT NT-4/5 | body weight, pairwise difference with the vehicle control group (DIO mice [3]; 2 mg/kg i.v. on day 1, 8, 15, 22, Bonferroni posttests): significant pairwise differences | time to body weight recovery after each weekly dosing (DIO mice [3]; 2 mg/kg i.v. weekly): 3 to 4 days

B4: 1PEG-NT4-G1S: NT4-G1S dimer with one 20 kDa PEG molecule conjugated to only one monomer (conjugate)
chain 1: B2 chain with G1S, C50S
chain 2: B2 chain with G1S, C50S
receptor tyrosine phosphorylation of TrkB-expressing cell line (human TrkB): increased receptor tyrosine phosphorylation | receptor tyrosine phosphorylation of trkC-expressing cell line (human TrkC): did not increase receptor tyrosine phosphorylation | receptor tyrosine phosphorylation of trkA-expressing cell line (human TrkA): did not increase receptor tyrosine phosphorylation | Body weight expressed in percentage of baseline value (db/db mice [4]; Day 1): 100.0 % of baseline | Body weight expressed in percentage of baseline value (db/db mice [4]; Day 2): 98.2 % of baseline | Body weight expressed in percentage of baseline value (db/db mice [4]; Day 3): 100.0 % of baseline | Body weight expressed in percentage of baseline value (db/db mice [4]; Day 4): 103.0 % of baseline | body weight growth (db/db mice [4]; [7]): reduced the body weight growth | non-fasting serum glucose levels (db/db mice [5]): showed a tendency to reduce | Daily food intake (db/db mice [6]; Day 1): 6.8 g/day | Daily food intake (db/db mice [6]; Day 2): 5.3 g/day | Daily food intake (db/db mice [6]; Day 3): 6.7 g/day | Daily food intake (db/db mice [6]; Day 4): 6.3 g/day | food intake (db/db mice [6]; [7]): reduced
